# Measured values reported in publication PMC3807708.
# Legend:
# [1] = target: extracellular domain of human interferon-γ receptor 1 (IFN-γ-Rx), mutant H222R (human) (UniProt P15260); experiment: SPR; His-tagged receptor immobilised on Ni2+-coated HTG chip; IFN-γ-SC as analyte; PBST; 15 °C; preliminary data of temperature dependency
# [2] = target: extracellular domain of human interferon-γ receptor 1 (IFN-γ-Rx), mutant N70G (human) (UniProt P15260); experiment: as above
# [3] = target: extracellular domain of human interferon-γ receptor 1 (IFN-γ-Rx), mutant N96W (human) (UniProt P15260); experiment: as above
# [4] = target: extracellular domain of human interferon-γ receptor 1 (IFN-γ-Rx), mutant S95R (human) (UniProt P15260); experiment: as above
# [5] = target: extracellular domain of human interferon-γ receptor 1 (IFN-γ-Rx), wild type (human) (UniProt P15260); experiment: as above
# [6] = target: extracellular domain of human interferon-γ receptor 1 (IFN-γ-Rx), mutant H222R (human) (UniProt P15260); experiment: SPR; His-tagged receptor immobilised on Ni2+-coated HTG chip; IFN-γ-SC as analyte; PBST; 25 °C; preliminary data of temperature dependency
# [7] = target: extracellular domain of human interferon-γ receptor 1 (IFN-γ-Rx), mutant N96W (human) (UniProt P15260); experiment: as above
# [8] = target: extracellular domain of human interferon-γ receptor 1 (IFN-γ-Rx), mutant S95R (human) (UniProt P15260); experiment: as above
# [9] = target: extracellular domain of human interferon-γ receptor 1 (IFN-γ-Rx), wild type (human) (UniProt P15260); experiment: as above
# IFN-γ-Rx H222D (human) = IFN-γ-Rx H222D (human) (UniProt P15260); experiment: SPR; ProteOn XPR36; His-tagged receptor immobilised on Ni2+-activated HTG chip; IFN-γ-SC as analyte, 1.2 to 99 nM; PBST (PBS pH 7.4, 0.005% Tween20); 25°C; 1:1 Langmuir with drift model; doubly referenced
# IFN-γ-Rx N65R (human) = IFN-γ-Rx N65R (human) (UniProt P15260); experiment: as above
# IFN-γ-Rx N70G (human) = IFN-γ-Rx N70G (human) (UniProt P15260); experiment: as above
# [10] = target: IFN-γ-Rx N70G + S95R + H222R (human) (UniProt P15260); experiment: as above
# [11] = target: IFN-γ-Rx N96W + H222R (human) (UniProt P15260); experiment: as above
# IFN-γ-Rx T166Y (human) = IFN-γ-Rx T166Y (human) (UniProt P15260); experiment: as above
# [12] = target: extracellular domain of human interferon-γ receptor 1 (IFN-γ-Rx), mutant N70G (human) (UniProt P15260); experiment: SPR; His-tagged receptor immobilised on Ni2+-activated HTG chip (ProteOn XPR36); IFN-γ-SC as analyte, 1.2 to 99 nM; PBST (PBS pH 7.4, 0.005% Tween20); 25 °C; 1:1 Langmuir with drift; averages over four different batches of IFN-γ-SC
# [13] = target: extracellular domain of human interferon-γ receptor 1 (IFN-γ-Rx), mutant N96W (human) (UniProt P15260); experiment: as above
# [14] = target: extracellular domain of human interferon-γ receptor 1 (IFN-γ-Rx), wild type (human) (UniProt P15260); experiment: as above
substance,measurement,setting,value
single-chain form of human interferon-γ (IFN-γ-SC) (ligand),Kd,[1],0.0164 µM
same,Kd,[2],0.0147 µM
same,Kd,[3],0.00555 µM
same,Kd,[4],0.0386 µM
same,Kd,[5],0.0168 µM
same,Kd,[6],0.0301 µM
same,Kd,[7],0.0061 µM
same,Kd,[8],0.0694 µM
same,Kd,[9],0.0305 µM
same,fold change of Kd against WT,IFN-γ-Rx H222D (human),2.2 fold
same,Kd,IFN-γ-Rx N65R (human),0.0712 µM
same,koff,IFN-γ-Rx N65R (human),0.0628 s⁻¹
same,kon,IFN-γ-Rx N65R (human),882000 M⁻¹ s⁻¹
same,Kd,IFN-γ-Rx N70G (human),0.0236 µM
same,koff,IFN-γ-Rx N70G (human),0.0264 s⁻¹
same,kon,IFN-γ-Rx N70G (human),1.12e+06 M⁻¹ s⁻¹
same,Kd,[10],0.037 µM
same,koff,[10],0.0401 s⁻¹
same,kon,[10],1.09e+06 M⁻¹ s⁻¹
same,Kd,[11],0.00416 µM
same,koff,[11],0.01 s⁻¹
same,kon,[11],2.4e+06 M⁻¹ s⁻¹
same,Kd,IFN-γ-Rx T166Y (human),0.0831 µM
same,koff,IFN-γ-Rx T166Y (human),0.0782 s⁻¹
same,kon,IFN-γ-Rx T166Y (human),940000 M⁻¹ s⁻¹
same,Kd,[12],0.019 µM
same,Kd,[13],0.0053 µM
same,Kd,[14],0.021 µM
